The text below walks through data of US20210371525A1.

The target of this assay is CD277 (BTN3A1) on Jeko-1 cells (UniProt O00481). As to the kind of experiment: cell-based or functional assay.
CD277 (BTN3A1) on Jeko-1 cells, sequence (O00481 30-513 limits assumed): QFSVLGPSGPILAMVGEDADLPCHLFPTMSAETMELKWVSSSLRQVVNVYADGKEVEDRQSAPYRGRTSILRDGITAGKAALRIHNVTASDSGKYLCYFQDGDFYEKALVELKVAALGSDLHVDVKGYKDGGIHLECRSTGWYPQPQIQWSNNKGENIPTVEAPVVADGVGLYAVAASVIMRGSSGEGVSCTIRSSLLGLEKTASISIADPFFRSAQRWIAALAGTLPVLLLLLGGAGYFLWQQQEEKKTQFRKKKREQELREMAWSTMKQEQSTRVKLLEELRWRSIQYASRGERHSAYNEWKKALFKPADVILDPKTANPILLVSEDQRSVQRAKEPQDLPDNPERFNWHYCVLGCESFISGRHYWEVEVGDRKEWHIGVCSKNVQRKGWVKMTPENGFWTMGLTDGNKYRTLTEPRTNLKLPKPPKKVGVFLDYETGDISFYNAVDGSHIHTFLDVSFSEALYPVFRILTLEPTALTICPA

B1: human Vγ9Vδ2-TCR on cultured Vγ9Vδ2-T cells (TCR, V domains shown)
V domain 1: AGHLEQPQISSTKTLSKTARLECVVSGITISATSVYWYRERPGEVIQFLVSISYDGTVRKESGIPSGKFEVDRIPETSTSTLTIHNVEKQDIATYYCALWEAQQELGKKIKVFGPGTKLIITD
V domain 2: AIELVPEHQTVPVSIGVPATLRCSMKGEAIGNYYINWYRKTQGNTMTFIYREKDIYGPGFKDNFQGDIDIAKNLAVLKILAPSERDEGSYYCACDTLGMGGEYTDKLIFGKGTRVTVEP
B1 gave a decrease of 1D7-5C8-induced lysis of Jeko-1 cells with anti-CD277 mAb 103.2 (10 µg/mL) of 11.4% and a specific lysis of Jeko-1 cells at 10 pM 1D7-5C8 with anti-CD277 mAb 103.2 (10 µg/mL) of 18.2%.
